Test results reported in patent publication US20150132821, “Systems and Methods for Improving Nuclease Specificity and Activity” (Georgia Tech Research Corporation, published 2015).

Columns and labels:
[1] = test system: S-08 NK-TALEN (synthetic); assay: cell_activity; settings: monomer SSA assay
[2] = test system: S-39 NK-TALEN (synthetic); assay: cell_activity; settings: monomer SSA assay
[3] = test system: S-03 NK-TALEN (synthetic); assay: cell_activity; settings: monomer SSA assay
[4] = test system: S-42 NK-TALEN (synthetic); assay: cell_activity; settings: monomer SSA assay
[5] = test system: S-16 NK-TALEN (synthetic); assay: cell_activity; settings: monomer SSA assay
[6] = test system: S-20 NK-TALEN (synthetic); assay: cell_activity; settings: monomer SSA assay
[7] = test system: S-27 NK-TALEN (synthetic); assay: cell_activity; settings: monomer SSA assay
[8] = test system: S-40 NK-TALEN (synthetic); assay: cell_activity; settings: monomer SSA assay
[9] = test system: S-26 NK-TALEN (synthetic); assay: cell_activity; settings: monomer SSA assay
[10] = test system: S-10 NK-TALEN (synthetic); assay: cell_activity; settings: monomer SSA assay
[11] = test system: S-37 NK-TALEN (synthetic); assay: cell_activity; settings: monomer SSA assay
[12] = test system: S-33 NK-TALEN (synthetic); assay: cell_activity; settings: monomer SSA assay
[13] = test system: S-12 NK-TALEN (synthetic); assay: cell_activity; settings: monomer SSA assay
[14] = test system: S-13 NK-TALEN (synthetic); assay: cell_activity; settings: monomer SSA assay
[15] = test system: S-30 NK-TALEN (synthetic); assay: cell_activity; settings: monomer SSA assay
[16] = test system: S-32 NK-TALEN (synthetic); assay: cell_activity; settings: monomer SSA assay
[17] = test system: S-29 NK-TALEN (synthetic); assay: cell_activity; settings: monomer SSA assay
[18] = test system: S-06 NK-TALEN (synthetic); assay: cell_activity; settings: monomer SSA assay
[19] = test system: S-28 NK-TALEN (synthetic); assay: cell_activity; settings: monomer SSA assay
[20] = test system: S-44 NK-TALEN (synthetic); assay: cell_activity; settings: monomer SSA assay
[21] = test system: S-31 NK-TALEN (synthetic); assay: cell_activity; settings: monomer SSA assay
[22] = test system: S-34 NK-TALEN (synthetic); assay: cell_activity; settings: monomer SSA assay
[23] = test system: S-22 NK-TALEN (synthetic); assay: cell_activity; settings: monomer SSA assay
[24] = test system: S-25 NK-TALEN (synthetic); assay: cell_activity; settings: monomer SSA assay
[25] = test system: S-04 NK-TALEN (synthetic); assay: cell_activity; settings: monomer SSA assay
[26] = test system: S-41 NK-TALEN (synthetic); assay: cell_activity; settings: monomer SSA assay
[27] = test system: S-15 NK-TALEN (synthetic); assay: cell_activity; settings: monomer SSA assay
[28] = test system: S-24 NK-TALEN (synthetic); assay: cell_activity; settings: monomer SSA assay
[29] = test system: S-19 NK-TALEN (synthetic); assay: cell_activity; settings: monomer SSA assay
[30] = test system: S-43 NK-TALEN (synthetic); assay: cell_activity; settings: monomer SSA assay
[31] = test system: S-23 NK-TALEN (synthetic); assay: cell_activity; settings: monomer SSA assay
[32] = test system: S-38 NK-TALEN (synthetic); assay: cell_activity; settings: monomer SSA assay
[33] = test system: S-11 NK-TALEN (synthetic); assay: cell_activity; settings: monomer SSA assay
[34] = test system: S-17 NK-TALEN (synthetic); assay: cell_activity; settings: monomer SSA assay
[35] = test system: S-09 NK-TALEN (synthetic); assay: cell_activity; settings: monomer SSA assay
[36] = test system: S-35 NK-TALEN (synthetic); assay: cell_activity; settings: monomer SSA assay
[37] = test system: S-18 NK-TALEN (synthetic); assay: cell_activity; settings: monomer SSA assay
[38] = test system: S-36 NK-TALEN (synthetic); assay: cell_activity; settings: monomer SSA assay
[39] = test system: S-21 NK-TALEN (synthetic); assay: cell_activity; settings: monomer SSA assay
S-05 (S5) NK-TALEN = biological target: T1, S-05 (S5) NK-TALEN (synthetic); assay: cell_activity; monomer SSA assay; settings: tags: 3xFLAG, NLS, FokI
T1 chain: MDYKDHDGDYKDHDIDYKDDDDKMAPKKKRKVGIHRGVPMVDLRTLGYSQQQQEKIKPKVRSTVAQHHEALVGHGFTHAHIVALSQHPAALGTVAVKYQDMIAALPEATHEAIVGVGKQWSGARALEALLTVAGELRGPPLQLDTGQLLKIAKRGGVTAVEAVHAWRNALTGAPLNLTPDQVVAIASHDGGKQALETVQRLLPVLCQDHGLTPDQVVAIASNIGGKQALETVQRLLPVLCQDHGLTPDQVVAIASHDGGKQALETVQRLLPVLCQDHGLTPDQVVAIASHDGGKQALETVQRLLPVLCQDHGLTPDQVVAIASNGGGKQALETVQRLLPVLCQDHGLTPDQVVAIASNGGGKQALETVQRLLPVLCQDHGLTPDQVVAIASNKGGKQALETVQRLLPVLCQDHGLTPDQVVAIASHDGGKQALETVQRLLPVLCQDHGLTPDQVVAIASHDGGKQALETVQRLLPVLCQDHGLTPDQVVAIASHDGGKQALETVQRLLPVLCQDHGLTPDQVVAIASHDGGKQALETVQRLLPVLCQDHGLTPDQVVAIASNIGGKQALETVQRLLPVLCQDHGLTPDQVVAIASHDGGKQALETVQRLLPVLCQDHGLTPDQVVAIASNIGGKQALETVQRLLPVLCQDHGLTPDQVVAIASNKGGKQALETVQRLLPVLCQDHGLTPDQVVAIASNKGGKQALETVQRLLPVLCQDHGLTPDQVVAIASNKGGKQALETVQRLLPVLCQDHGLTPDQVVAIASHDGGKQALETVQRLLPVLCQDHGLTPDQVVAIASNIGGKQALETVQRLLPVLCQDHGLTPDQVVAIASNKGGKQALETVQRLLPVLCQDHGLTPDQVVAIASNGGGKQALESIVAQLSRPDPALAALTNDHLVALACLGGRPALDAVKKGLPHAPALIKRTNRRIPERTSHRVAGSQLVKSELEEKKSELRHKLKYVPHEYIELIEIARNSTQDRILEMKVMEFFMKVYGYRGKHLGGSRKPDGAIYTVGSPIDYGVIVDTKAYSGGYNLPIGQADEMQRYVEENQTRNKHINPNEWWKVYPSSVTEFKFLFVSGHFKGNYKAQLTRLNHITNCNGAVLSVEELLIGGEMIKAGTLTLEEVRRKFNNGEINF
Description: HEK293T cells (ATCC) were cultured in Dulbecco's Modified Eagle Medium (Sigma) supplemented with 10% FBS and 2 mM L-Glutamine. Cells were seeded 80,000 per well of a 24-well plate. After 4 h, cells were transfected with 200 ng of the TALEN plasmid (or 100 ng of each TALEN for hetero-dimeric pairs) and 10 ng of the corresponding SSA reporter plasmid using calcium phosphate transfection. Three control transfections were included: 1) 200 ng of an empty TALEN backbone and 10 ng of an SSA reporter plasmid, 2) 200 ng of an empty TALEN backbone and 10 ng of a pEGFP plasmid, and 3) 100 ng of each GFP-ZFN and 10 ng of an SSA reporter plasmid. Cells were harvested 48 h after transfection. The percentages of pEGFP-transfected samples expressing GFP were determined using an Accuri C6 flow cytometer, as an indication of transfection efficiency. Genomic DNA was isolated using QuickExtract DNA extraction solution (Epicentre) as described20. Sample were PCR amplified for 35 cycles (95° C., 30 s; 60° C., 30 s; 72° C., 60 s) in a 50 μl reaction that contains 2 μl of the extracted DNA, 2.5 μl of each 10 μM target region amplification primer (SSA-Cell-F4, 5′-[…] (SEQ ID NO: 183); SSA-Cell-R4, 5′-[…] (SEQ ID NO: 184)), and 25 μl of GoTaq green master mix (Promega). PCR reactions were then separated on 2% agarose gels and the percentages of SSA-repaired products were quantified using ImageJ.

Molecule: CACCTTGCCCCACAGGGCAGTA (double strand) [S-08 half-site]
- activity [1]: 1.9 % SSA

Molecule: GGGTTTCTGATAGGCACTGACTCTCTCT (double strand) [S-39 half-site]
- activity [2]: 5 % SSA

Molecule: CAAACAGACACCATGGTGCACCT (double strand) [S-03 half-site]
- activity [3]: 4.9 % SSA

Molecule: GCTTACATTTGCTTCTGACACAACT (double strand) [S-42 half-site]
- activity [4]: 4.3 % SSA

Molecule: CTGATAGGCACTGACTCT (double strand) [S-16 half-site]
- activity [5]: 30.9 % SSA

Molecule: CTGATAGGCACTGACTCTCTCTGCCTAT (double strand) [S-20 half-site]
- activity [6]: 16.6 % SSA

Molecule: GCCTATCAGAAACCCAAGAGTCTTCTCTGT (double strand) [S-27 half-site]
- activity [7]: 3.5 % SSA

Molecule: ATTGCTTACATTTGCTTCTGACACAACT (double strand) [S-40 half-site]
- activity [8]: 2.5 % SSA

Molecule: ATCAGAAACCCAAGAGTCTTCTCTGT (double strand) [S-26 half-site]
- activity [9]: 11.7 % SSA

Molecule: GCTTACATTTGCTTCTGACACAACTGTGTT (double strand) [S-10 half-site]
- activity [10]: 8.4 % SSA

Molecule: GCCTATCAGAAACCCAAGAGT (double strand) [S-37 half-site]
- activity [11]: 4.8 % SSA

Molecule: GCCTATCAGAAACCCAAGAGTCTT (double strand) [S-33 half-site]
- activity [12]: 4.9 % SSA

Molecule: TGCCCCACAGGGCAGT (double strand) [S-12 half-site]
- activity [13]: 11 % SSA

Molecule: CTTGGGTTTCTGATAGGCACTGACTCTCT (double strand) [S-13 half-site]
- activity [14]: 13 % SSA

Molecule: ATCAGAAACCCAAGAGTCTTCT (double strand) [S-30 half-site]
- activity [15]: 17.9 % SSA

Molecule: ATCAGAAACCCAAGAGTCTT (double strand) [S-32 half-site]
- activity [16]: 10.5 % SSA

Molecule: GCCTATCAGAAACCCAAGAGTCTTCTCT (double strand) [S-29 half-site]
- activity [17]: 5.3 % SSA

Molecule: CACCTTGCCCCACAGGGCAGTAA (double strand) [S-06 half-site]
- activity [18]: 5.3 % SSA

Molecule: ATCAGAAACCCAAGAGTCTTCTCT (double strand) [S-28 half-site]
- activity [19]: 15.3 % SSA

Molecule: GCTTACATTTGCTTCTGACACAACTGTGT (double strand) [S-44 half-site]
- activity [20]: 3.2 % SSA

Molecule: GCCTATCAGAAACCCAAGAGTCTTCT (double strand) [S-31 half-site]
- activity [21]: 9.7 % SSA

Molecule: ATCAGAAACCCAAGAGTCT (double strand) [S-34 half-site]
- activity [22]: 14.8 % SSA

Molecule: CCACGTTCACCTTGCCCCACAGGGCAGT (double strand) [S-22 half-site]
- activity [23]: 4.5 % SSA

Molecule: CTCCACAGGAGTCAGGTGCACCAT (double strand) [S-25 half-site]
- activity [24]: 11.1 % SSA

Molecule: CAAACAGACACCATGGTGCACCTGA (double strand) [S-04 half-site]
- activity [25]: 2.5 % SSA

Molecule: ATTGCTTACATTTGCTTCTGACACAACTGT (double strand) [S-41 half-site]
- activity [26]: 3.1 % SSA

Molecule: CCTGTGGAGAAGTCTGCCGT (double strand) [S-15 half-site]
- activity [27]: 3 % SSA

Molecule: CCAAGGGTAGACCACCAGCAGCCT (double strand) [S-24 half-site]
- activity [28]: 1.3 % SSA

Molecule: CTGATAGGCACTGACTCTCTCTGCCT (double strand) [S-19 half-site]
- activity [29]: 17.2 % SSA

Molecule: GCTTACATTTGCTTCTGACACAACTGT (double strand) [S-43 half-site]
- activity [30]: 4.1 % SSA

Molecule: AGACCACCAGCAGCCT (double strand) [S-23 half-site]
- activity [31]: 11.6 % SSA

Molecule: CTATTGCTTACATTTGCTTCTGACACAACT (double strand) [S-38 half-site]
- activity [32]: 3.7 % SSA

Molecule: ACAAGACAGGTTTAAGGAGACCAAT (double strand) [S-11 half-site]
- activity [33]: 1.5 % SSA

Molecule: CTGATAGGCACTGACTCTCT (double strand) [S-17 half-site]
- activity [34]: 29.2 % SSA

Molecule: GCCCCACAGGGCAGTAACGGCAGA (double strand) [S-09 half-site]
- activity [35]: 6.2 % SSA

Molecule: GCCTATCAGAAACCCAAGAGTCT (double strand) [S-35 half-site]
- activity [36]: 8.1 % SSA

Molecule: CTGATAGGCACTGACTCTCTCT (double strand) [S-18 half-site]
- activity [37]: 26.2 % SSA

Molecule: ATCAGAAACCCAAGAGT (double strand) [S-36 half-site]
- activity [38]: 7.3 % SSA

Molecule: CTGATAGGCACTGACTCTCTCTGCCTATT (double strand) [S-21 half-site]
- activity [39]: 21.8 % SSA

B1: S-05 half-site (dsDNA)
DNA 1: CACCTTGCCCCACAGGGCAGT
DNA 2: ACTGCCCTGTGGGGCAAGGTG
- activity (S-05 (S5) NK-TALEN): 6.1 % SSA
